# Test results published in US20130230533A1 (Regeneron, published 2013).
# T1: biotinylated dimeric human CD48 protein expressed as a fusion with mouse IgG2a Fc (human, biotinylated)
# T1 construct: also called bio-hCD48-mFc; Dimeric human CD48-mFc
# T1 chain: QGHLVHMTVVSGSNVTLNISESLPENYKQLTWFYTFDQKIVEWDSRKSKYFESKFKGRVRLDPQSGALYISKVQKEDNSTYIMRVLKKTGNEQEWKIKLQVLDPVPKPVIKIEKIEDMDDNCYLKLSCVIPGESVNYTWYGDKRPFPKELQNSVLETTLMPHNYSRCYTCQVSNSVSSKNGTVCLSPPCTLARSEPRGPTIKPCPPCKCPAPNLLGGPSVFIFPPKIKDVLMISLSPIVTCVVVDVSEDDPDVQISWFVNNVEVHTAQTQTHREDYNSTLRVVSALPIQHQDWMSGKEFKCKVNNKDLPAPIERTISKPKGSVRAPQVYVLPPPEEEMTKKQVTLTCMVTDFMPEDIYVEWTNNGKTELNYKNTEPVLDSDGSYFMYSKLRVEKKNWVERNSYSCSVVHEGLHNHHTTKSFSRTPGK
# T2: human CD48 (on primary human peripheral blood mononuclear cells) (human, UniProt P09326 27-220)
# T2 sequence: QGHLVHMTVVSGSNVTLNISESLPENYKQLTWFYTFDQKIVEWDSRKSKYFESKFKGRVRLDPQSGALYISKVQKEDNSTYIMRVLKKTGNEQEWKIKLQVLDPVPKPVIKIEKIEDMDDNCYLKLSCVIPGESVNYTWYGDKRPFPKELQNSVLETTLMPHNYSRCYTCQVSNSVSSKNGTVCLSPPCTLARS
# T3: monomeric monkey CD48 expressed with a tag consisting of 2 myc and one 6-His epitopes (monkey)
# T3 construct: also called mfCD48-mmH; Monomeric monkey CD48-mmH
# T3 chain: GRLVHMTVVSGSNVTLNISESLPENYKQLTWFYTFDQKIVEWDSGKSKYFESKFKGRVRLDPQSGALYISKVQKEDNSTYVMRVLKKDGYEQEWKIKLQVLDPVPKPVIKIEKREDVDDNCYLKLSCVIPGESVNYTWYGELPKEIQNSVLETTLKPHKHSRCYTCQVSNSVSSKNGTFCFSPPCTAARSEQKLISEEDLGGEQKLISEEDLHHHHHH
# Key:
# [1] = molecular target: T1, biotinylated dimeric human CD48 protein …; assay: competition ELISA; blocks bio-hCD48-mFc binding to coated h2B4-mFc
# Description: (§1) The ability of human anti-CD48 monoclonal antibodies to block human CD48 and monkey CD48 binding to the human cognate ligand, human 2B4, was measured using a competition sandwich ELISA (Table 8). Constant amounts of biotinylated dimeric human CD48 protein expressed as a fusion with mouse IgG2a Fc (“bio-hCD48-mFc” [SEQ ID NO: 387]) or monomeric monkey CD48 expressed with a tag consisting of 2 myc and one 6-His epitopes (“mfCD48-mmH” [SEQ ID NO: 386]) were separately titrated with varying amounts of antibodies. These antibody-protein complexes were incubated (1 hr, 25° C.) before being transferred to microtiter plates coated with a dimeric construct expressing the human 2B4 receptor fused to a either human IgG1 (h2B4-hFc [R&D Systems, Inc., Minneapolis, Minn., Cat. No. 1039-2B]) or mouse IgG2a Fc (h2B4-mFc [SEQ ID NO: 389). After a 1 hr at 25° C. the wells were washed and bound human CD48 was detected with streptavidin conjugated with horse-radish peroxidase (HRP), and monkey CD48 was detected with an HRP conjugated anti-myc polyclonal antibody. The ELISA was developed with a TMB solution to produce a colorimetric reaction and quenched with sulfuric acid before reading absorbance at 450 nm on a Victor X5 plate reader. Sigmoidal dose response curves were fit to the data using Prism™ software. […] (Tables 8 and 9, NB=no binding observed)
# [2] = molecular target: T2, human CD48 (on primary human peripheral …); assay: cell-based or functional assay
# [3] = molecular target: T2, human CD48 (on primary human peripheral …); assay: cell-based or functional assay; remark: listed apart in the source
# [4] = molecular target: T3, monomeric monkey CD48 expressed with a …; assay: competition ELISA; blocks mfCD48-mmH binding to coated h2B4-mFc
# Description: as §1
# [5] = molecular target: T2, human CD48 (on primary human peripheral …); assay: cell-based or functional assay; remark: listed apart in the source
# [6] = molecular target: T2, human CD48 (on primary human peripheral …); assay: cell-based or functional assay; remark: listed apart in the source
binder,measurement,setting,value
"H4H1763N (antibody, human IgG4, V domains shown, Human IgG4 Fc (H4H) form of 1763N) VH: QIQLVQSGAEMKRPGTSVKVSCKASGYTFTSYGINWVRQAPGQGLEWMGWISAYNGDTNYAQKLQGRVTMTTDTSTTTAYMEVRSLRSDDTAVYYCARFLTGTKDYYYGMDVWGQGTTVTVSS VL: DIQMTQSPSSLSASVGDRVTITCQASQDISNFLNWYQQKPGKAPDLLINDASILETGVPSRFSGSGSGTDFTLTINNLQPEDIATYYCQQYDNLPLTFGGGTKVEIK",IC50,[1],7.4 pM
same,"IC50 of IFNγ release, MLR; D1",[2],~10 pM
same,"IC50 of IFNγ release, MLR; D3",[2],~6.4 pM
same,"IC50 of IFNγ release, MLR; D4",[2],210 pM
same,"IC50 of IFNγ release, MLR; D5",[2],~27 pM
same,"IC50 of IFNγ release, MLR; D6",[2],23 pM
same,"IC50 of IFNγ release, MLR; D8",[2],~3700 pM
same,"IC50 of IFNγ release, MLR; D9",[2],~4100 pM
same,"IC50 of IFNγ release, MLR; D10",[2],~84 pM
same,"IC50 of IFNγ release, MLR; D11",[2],73 pM
same,"IC50 of IFNγ release, MLR; D12",[2],~56 pM
same,"IC50 of IFNγ release, MLR; D13",[2],92 pM
same,"IC50 of IFNγ release, MLR; D14",[2],63 pM
same,"IC50 of IFNγ release, MLR; D15",[2],~0.059 pM
same,"IC50 of IFNγ release, MLR; D16",[2],7.6 pM
same,"% Blockade of IFNγ release, MLR; D1",[3],59%
same,"% Blockade of IFNγ release, MLR; D2",[3],89%
same,"% Blockade of IFNγ release, MLR; D3",[3],68%
same,"% Blockade of IFNγ release, MLR; D4",[3],52%
same,"% Blockade of IFNγ release, MLR; D5",[3],63%
same,"% Blockade of IFNγ release, MLR; D6",[3],75%
same,"% Blockade of IFNγ release, MLR; D7",[3],48%
same,"% Blockade of IFNγ release, MLR; D8",[3],30%
same,"% Blockade of IFNγ release, MLR; D9",[3],53%
same,IC50,[4],7.2 pM
same,Inhibition of IFN-gamma Release IC50; Donor 8,[5],8.6e-12 Molar
same,Inhibition of IFN-gamma Release IC50; Donor 9,[5],9.3e-12 Molar
same,Inhibition of IFN-gamma Release IC50; Donor 10,[5],1e-12 Molar
same,Inhibition of IFN-gamma Release IC50; Donor 11,[5],3.4e-12 Molar
"H4H1774P (antibody, human IgG4, V domains shown, Human IgG4 Fc (H4H)) VH: QVQLVESGGGVVQPGRSLRLSCAASGFTFSNYGMHWVRQAPGKGLEWVAVIWYDESSKYYTDSVKGRFTISRDNSQNTLYLQMTSLRAEDTAVYYCARDRWTYSHYFEYWGQGTLVTVSS VL: DIQMTQSPSSVSASVGDRVTITCRASQGISSWVAWYQQKPGKAPKLLIYAASSLQSGVPSRFSGSGSGTDFTLTISSLQPEDFATYYCQQANSFPRTFGQGTKVEIK",IC50,[1],25 pM
same,IC50,[4],16 pM
same,Inhibition of IFN-gamma Release IC50; Donor 6,[6],2.5e-11 Molar
same,Inhibition of IFN-gamma Release IC50; Donor 7,[6],9.5e-12 Molar
"H4H1781P (antibody, human IgG4, V domains shown, Human IgG4 Fc (H4H)) VH: QVQLVESGGGVVQPGRSLRLSCAASGFTFSNYGMHWVRQAPGKGLEWVAVIWYDDSNKNYADSVKGRFTISRDNSKNTLYLQMNSLRVEDTAVYYCARDRWTYSHFFEYWGQGTLVTVSS VL: DIQMTQSPSSVSASVGDRVTITCRASQGISSWLAWYQQKPGKAPNLLIYAASSLQSGVPSRFGGSGSGTDFSLTISGLQPEDFATYYCQQANSFPRTFGQGTKVEIK",IC50,[1],18 pM
same,IC50,[4],8.1 pM
same,Inhibition of IFN-gamma Release IC50; Donor 6,[6],3.6e-11 Molar
same,Inhibition of IFN-gamma Release IC50; Donor 7,[6],1.5e-11 Molar
"H4H1778P (antibody, human IgG4, V domains shown, Human IgG4 Fc (H4H)) VH: QVQLVESGGGVVQPGRSLRLSCAASGFTFSNYGMHWVRQAPGKGLEWVAVIWYDESSKYYTDSVKGRFTISRDNSQNTLYLQMTSLRAEDTAVYYCARDRWTYSHYFEYWGQGTLVTVSS VL: DIQMTQSPSSVSASVGDRVTITCRASQGISSWVAWYQQKPGKAPKLLIYAASSLQSGVPSRFSGSGSGTDFTLTISSLQPEDFATYYCQQANSFPRTFGQGTKVEIK",IC50,[1],56 pM
same,IC50,[4],8.4 pM
same,Inhibition of IFN-gamma Release IC50; Donor 6,[6],9.8e-12 Molar
